Article PMC10351726 (2023)

Target: HER2-ECD biotinylated at single site (human, UniProt P04626 23-652, biotinylated at single site)
Assay: SPR

Row | Binder | Kd [nM]
1 | NanoMab-02 (NM-02) (VHH) VHH: QVQLQESGGGSVQAGETLRLSCTASGFTFDDSDMGWYRQAPGNECELVSSISSDGSTYYADSVKGRFTISQDNAKNTVYLQMNSLKPEDTGVYYCAAEGHRYELGTCAALDYWGRGTQVTVSS | 0.183
2 | humanised NM-02 variant E (VHH) VHH: QVQLQESGGGLVQPGGSLRLSCSASGFTFDDSDMGWYRQAPGNECELVSSISSDGSTYYADSVKGRFTISQDNSKNTLYLQMNSLRAEDTGVYYCAAEGHRYELGTCAALDYWGRGTLVTVSS | 0.434
